Results as given in patent US11066455B2, “Tmem100 peptides and variants thereof and their use in treating or preventing diseases or conditions” (The Johns Hopkins University, priority 2014, dated 2021).
* marks the point of attachment. Myristoyl = CCCCCCCCCCCCCC(=O)*

Tests used:
Format in all cases: cell-based
TRPA1 [1] = target: T1, TRPA1 (Mus musculus, UniProt Q704Y3+Q8BLA8); assay: Calcium imaging of DRG neurons, response to mustard oil (MO); details: peptide 200 nM pretreatment; 10 μM MO; IB4-negative DRG neurons
T1 construct: endogenous in cells; host or cells: primary mouse DRG neurons
T1 sequence (Q8BLA8 whole entry): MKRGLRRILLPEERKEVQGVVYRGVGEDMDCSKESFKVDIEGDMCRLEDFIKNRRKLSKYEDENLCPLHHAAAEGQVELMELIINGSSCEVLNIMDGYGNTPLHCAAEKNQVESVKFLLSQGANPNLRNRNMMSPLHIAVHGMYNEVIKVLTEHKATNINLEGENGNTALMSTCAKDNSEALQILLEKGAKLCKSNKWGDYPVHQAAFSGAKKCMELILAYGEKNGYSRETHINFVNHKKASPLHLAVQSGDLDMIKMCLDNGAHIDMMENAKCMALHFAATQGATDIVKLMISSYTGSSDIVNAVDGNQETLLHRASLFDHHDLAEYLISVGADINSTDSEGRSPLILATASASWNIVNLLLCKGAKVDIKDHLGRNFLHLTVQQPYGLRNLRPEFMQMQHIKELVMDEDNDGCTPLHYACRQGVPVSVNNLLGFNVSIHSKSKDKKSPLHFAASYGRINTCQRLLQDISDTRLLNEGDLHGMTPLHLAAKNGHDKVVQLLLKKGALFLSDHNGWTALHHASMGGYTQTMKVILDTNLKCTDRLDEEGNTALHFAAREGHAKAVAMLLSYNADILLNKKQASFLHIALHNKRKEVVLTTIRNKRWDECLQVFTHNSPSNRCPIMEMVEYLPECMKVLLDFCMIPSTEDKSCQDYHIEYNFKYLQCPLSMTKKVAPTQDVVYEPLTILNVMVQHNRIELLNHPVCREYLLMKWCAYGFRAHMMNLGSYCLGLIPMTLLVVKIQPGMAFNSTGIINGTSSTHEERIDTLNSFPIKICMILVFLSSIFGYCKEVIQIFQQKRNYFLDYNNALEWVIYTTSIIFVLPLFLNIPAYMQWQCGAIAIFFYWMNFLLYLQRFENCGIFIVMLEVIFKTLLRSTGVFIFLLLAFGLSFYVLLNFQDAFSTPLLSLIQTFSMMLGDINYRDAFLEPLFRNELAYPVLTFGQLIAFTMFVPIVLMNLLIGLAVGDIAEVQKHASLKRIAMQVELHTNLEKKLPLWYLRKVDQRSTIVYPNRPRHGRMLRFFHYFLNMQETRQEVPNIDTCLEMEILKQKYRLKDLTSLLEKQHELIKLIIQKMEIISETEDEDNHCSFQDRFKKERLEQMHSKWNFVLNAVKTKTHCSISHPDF
T1 sequence (Q704Y3 whole entry): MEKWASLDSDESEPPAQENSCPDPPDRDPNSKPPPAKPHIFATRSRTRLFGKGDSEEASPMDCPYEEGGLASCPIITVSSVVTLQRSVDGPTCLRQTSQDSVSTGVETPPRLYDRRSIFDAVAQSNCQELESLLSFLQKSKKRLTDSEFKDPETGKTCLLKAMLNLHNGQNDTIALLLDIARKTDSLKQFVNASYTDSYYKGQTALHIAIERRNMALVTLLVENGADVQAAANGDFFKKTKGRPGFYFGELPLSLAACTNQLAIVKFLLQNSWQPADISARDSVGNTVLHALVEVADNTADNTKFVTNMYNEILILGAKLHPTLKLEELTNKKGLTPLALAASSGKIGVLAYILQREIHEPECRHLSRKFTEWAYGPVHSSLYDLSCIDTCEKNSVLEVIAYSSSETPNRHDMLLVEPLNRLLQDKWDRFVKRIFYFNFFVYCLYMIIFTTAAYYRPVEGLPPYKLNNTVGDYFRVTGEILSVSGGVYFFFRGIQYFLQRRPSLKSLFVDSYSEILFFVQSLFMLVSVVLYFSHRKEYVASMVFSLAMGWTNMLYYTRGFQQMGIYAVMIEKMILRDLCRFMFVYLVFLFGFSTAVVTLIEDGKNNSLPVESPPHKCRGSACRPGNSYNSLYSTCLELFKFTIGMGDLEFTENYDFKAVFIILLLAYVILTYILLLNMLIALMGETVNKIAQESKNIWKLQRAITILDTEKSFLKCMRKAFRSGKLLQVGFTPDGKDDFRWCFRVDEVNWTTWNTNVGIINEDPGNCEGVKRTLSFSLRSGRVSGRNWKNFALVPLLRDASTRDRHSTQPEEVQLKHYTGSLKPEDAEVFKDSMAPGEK
Description: Calcium imaging assays were performed as previously described (Liu et al., 2009). Cells were loaded with 2 μM fura 2-acetomethoxy ester (Molecular Probes) for 30 min in the dark at room temperature or for 45 minutes at 37° C. for DRG and cell lines, respectively. After washing, cells were imaged at 340 and 380 nm excitation to detect intracellular free calcium under a fluorescent microscope (Nikon Eclipse TE2000-S) and Lambda 10B shutter (Sutter Instrument). The cells were bathed in calcium imaging buffer (pH 7.45, 130 mM NaCl, 3 mM KCl, 2.5 mM CaCl2, 10 mM HEPES, 10 mM glucose, 1.2 mM NaHCO3, with sucrose to increase osmolarity to 290 mOsm). […] Images were processed and analyzed with NIS-Elements BR 2.30 software (Nikon). […] The data was analyzed with the experimenter blinded to the genotypes or constructs transfected.
DRG from 3 to 4-week old mice were collected in cold DH10 medium (90% DMEM/F-12, 10% FBS, 100 U/ml penicillin, and 100 μg/ml Streptomycin, Gibco) and treated with enzyme solution in HBSS containing collagenase (1.65 mg/mL, Worthington CLS I) and dispase (3.55 mg/mL, GIBCO 17105-041) at 37° C. for 30 minutes. […] This efficiency was determined by mCherry(+) divided by total number of cells in the bright fields. […]

TRPA1 [2] = tested on: T2, TRPA1; assay: MO-gated whole-cell voltage clamp in CHO cells expressing TRPA1+TRPV1; details: Vh=-60 mV; TRPA1+TRPV1+Tmem100-3Q (1:1:4) CHO cells
T2 construct: MO (10 μM)-evoked Ca2+ influx; other: TRPA1+TRPV1+Tmem100-3Q (1:1:4) CHO cells; MO (10 μM)-gated whole-cell current density; other: Vh=-60 mV; TRPA1+TRPV1+Tmem100-3Q (1:1:4) CHO cells; MO (10 μM)-induced single-channel activity (NPo); co-expressed with TRPA1+TRPV1 (1:1:4) in CHO cells
Description: Recordings were made in cell-attached single-channel or whole-cell voltage clamp configurations at 22-24° C. from the somata of small-to-medium mouse DRG neurons (15-35 pF) or CHO cells. For whole-cell configuration, holding potential (Vh) is −60 mV. Data were acquired and analyzed using an Axopatch 200B amplifier and pCLAMP9.0 software (Molecular Devices, Sunnyvale, Calif.). Borosilicate pipettes (Sutter, Novato, Calif.) were pulled and polished to resistances of 3-5 MΩ (in whole-cell and single-channel pipette solutions). Access resistance (Rs) was compensated (40-80%) when appropriate up to the value 7-10 MΩ for whole-cell configuration. Whole-cell recording data were filtered at 0.5 kHz and sampled at 2 kHz. Single-channels currents were filtered with an 8-pole, low pass Bessel filter at 0.1 kHz and sampled at 0.5 kHz, since dwelling time (τ) of the TRPA1 and TRPV1 single-currents were >0.5 sec. Whole-cell recorded data were rejected when Rs changed >20% during recording, leak currents were >100 pA, or input resistance was <200 MΩ.
Standard external solution (SES) for whole-cell patch recording contained (in mM): 140 NaCl, 5 KCl, 2 CaCl2, 1 MgCl2, 10 D-glucose and 10 HEPES, pH 7.4. Vehicle, which is 0.01% DMSO, was added to external solutions. […] The baseline activities of the cells were recorded for 1-2 min prior drug applications. […]

TRPA1 [3] = assay: Calcium imaging of HEK293T cells expressing TRPA1 and TRPV1 (MO or CA); details: HEK293T TRPA1+TRPV1 with Tmem100
Description: Calcium imaging assays were performed as previously described (Liu et al., 2009). Cells were loaded with 2 μM fura 2-acetomethoxy ester (Molecular Probes) for 30 min in the dark at room temperature or for 45 minutes at 37° C. for DRG and cell lines, respectively. After washing, cells were imaged at 340 and 380 nm excitation to detect intracellular free calcium under a fluorescent microscope (Nikon Eclipse TE2000-S) and Lambda 10B shutter (Sutter Instrument). The cells were bathed in calcium imaging buffer (pH 7.45, 130 mM NaCl, 3 mM KCl, 2.5 mM CaCl2, 10 mM HEPES, 10 mM glucose, 1.2 mM NaHCO3, with sucrose to increase osmolarity to 290 mOsm). The reagents and buffers were applied through a gravity perfusion system at a rate of […], including mustard oil (Sigma 377430), cinnamaldehyde (Sigma C80687), menthol (Sigma M2780), and capsaicin (Sigma M2028). Cells with high baseline 340/380 values (>1.5) were excluded for analysis. For DRG neurons, IB4 staining was performed in the chamber with the dilution of 1:200 (Molecular Probes 121412) for 160 seconds before washing off at the end of each test. Images were processed and analyzed with NIS-Elements BR 2.30 software (Nikon). A responsive cell was defined as one that with greater than a 20% increase in the 340/380 ratio above the baseline. Intracellular calibration for calcium was performed as previously described (Akopian et al., 2007). The data was analyzed with the experimenter blinded to the genotypes or constructs transfected.
DRG from 3 to 4-week old mice were collected in cold DH10 medium (90% DMEM/F-12, 10% FBS, 100 U/ml penicillin, and 100 μg/ml Streptomycin, Gibco) and treated with enzyme solution in HBSS containing collagenase (1.65 mg/mL, Worthington CLS I) and dispase (3.55 mg/mL, GIBCO 17105-041) at 37° C. for 30 minutes. After trituration and centrifugation, cells were resuspended in DH10, plated on glass coverslips coated with poly-D-lysine (0.5 mg/ml, Stoughton, Mass.) and laminin (10 μg/ml, Invitrogen), and cultured overnight in an incubator at 37° C. The neurons were tested within 24 hours. HEK293T, COS-7, and CHO cells were cultured in a medium consisting of 90% DMEM, 10% FBS, 100 U/mL penicillin, and 100 μg/ml Streptomycin. GlutaMAX (Gibco 35050-061) was also added for CHO cells. For calcium imaging, the cells were plated on glass coverslips coated with poly-D-lysine (0.5 mg/ml, Stoughton, Mass.). In the HEK cell studies the denominator is the cells expressing both TRPA1, TRPV1, and the designated constructs (i.e. Tmem100 or Tmem100-3Q mutant). mCherry:TRPV1:Tmem100 was transfected in 1:8:8 ratio into TRPA1 stable cell line (obtained from N. Tigue from GlaxoSmithKline) and used mCherry as the marker for the cells expressing the constructs 18 hours after transfection with Lipofectamine 2000. The transfection efficiency for Tmem100+TRPV1+TRPA1 triple-positive cells is 27±3%. This efficiency was determined by mCherry(+) divided by total number of cells in the bright fields.
The sequence from the last 28 amino acids of the C-terminus of the Tmem100-3Q mutant protein was synthesized and myristoylated at its N-terminus (myr-[…]-COOH) (SEQ ID NO: 8) by Twentyfirst Century Biochemicals. […] For the calcium imaging assay, the peptides were added to the calcium imaging buffer with a final concentration of 200 nM and incubated for at least […] at room temperature. For the mice behavioral assays, the peptides (5 μL, 2 mM) were injected subcutaneously in the hindpaw at least 30 minutes before testing. For the rat behavior assays, human T100-3Q (h-T100), a palmitoylated cell permeable peptide mutated based on the C terminus of human sequence in Tmem100, was applied. The sequence is Palmitoyl-[…]-COOH (SEQ ID NO: 7).

Question: For “myr-QRVLEQVLQNWSRRANVKQAQKFQVKCT-COOH (Myristoyl-QRVLEQVLQNWSRRANVKQAQKFQVKCT-OH; SMILES CCCCCCCCCCCCCC(=O)N[C@@H](CCC(N)=O)C(=O)N[C@@H](CCCNC(=N)N)C(=O)N[C@H](C(=O)N[C@@H](CC(C)C)C(=O)N[C@@H](CCC(=O)O)C(=O)N[C@@H](CCC(N)=O)C(=O)N[C@H](C(=O)N[C@@H](CC(C)C)C(=O)N[C@@H](CCC(N)=O)C(=O)N[C@@H](CC(N)=O)C(=O)N[C@@H](Cc1c[nH]c2ccccc12)C(=O)N[C@@H](CO)C(=O)N[C@@H](CCCNC(=N)N)C(=O)N[C@@H](CCCNC(=N)N)C(=O)N[C@@H](C)C(=O)N[C@@H](CC(N)=O)C(=O)N[C@H](C(=O)N[C@@H](CCCCN)C(=O)N[C@@H](CCC(N)=O)C(=O)N[C@@H](C)C(=O)N[C@@H](CCC(N)=O)C(=O)N[C@@H](CCCCN)C(=O)N[C@@H](Cc1ccccc1)C(=O)N[C@@H](CCC(N)=O)C(=O)N[C@H](C(=O)N[C@@H](CCCCN)C(=O)N[C@@H](CS)C(=O)N[C@H](C(=O)O)[C@@H](C)O)C(C)C)C(C)C)C(C)C)C(C)C) [scrambled]”, which “percentage of DRG neurons responding to MO” value (TRPA1 [1]) is on record?
Answer: 12±1.3%

B1: Tmem100-3Q mutant (full-length, mouse) (protein)
chain: MTEESTKENLGAPKSPTPVTMEKNPKREVVVTTGPLVSEVQLMAATGGAELSCYRCIIPFAVVVFITGIVVTAVAYSFNSHGSIISIFGLVLLSSGLFLLASSALCWKVRQRNKKVQQQESQTALVVNQRCLFA
Question: Which “MO (10 μM)-gated whole-cell current density” value (TRPA1 [2]) does the source give for B1 here?
Answer: 39.16±12.5 pA/pF

B2: Tmem100: 134-amino acid two-transmembrane protein, regulator of TRPA1 (SEQ ID NO: 1/2), expressed in cells (protein, listed as Homo sapiens, listed as Mus musculus)
chain 1: MTEEPIKEILGAPKAHMAATMEKSPKSEVVITTVPLVSEIQLMAATGGTELSCYRCIIPFAVVVFIAGIVVTAVAYSFNSHGSIISIFGLVVLSSGLFLLASSALCWKVRQRSKKAKRRESQTALVANQRSLFA
chain 2: MTEESTKENLGAPKSPTPVTMEKNPKREVVVTTGPLVSEVQLMAATGGAELSCYRCIIPFAVVVFITGIVVTAVAYSFNSHGSIISIFGLVLLSSGLFLLASSALCWKVRQRNKKVKRRESQTALVVNQRCLFA
Question: How did the “percentage of cells responsive to MO” value (TRPA1 [3]; 100 nM MO) turn out when B2 was run?
Answer: 20%

Question: And the “percentage of cells responsive to CA” value (TRPA1 [3]; 5 μM CA)?
Answer: 30%
